Target: HLA-A*02:01 (Homo sapiens, UniProt P04439, D140Y/D185E/D98H/E176V/E277Q/G131W/G231S/I119V/I121R/I166T/I218V/L300P/L318F/N151K/N90K/P208A/P217A/Q86G/Q94H/R138H/R169H/T345S)
Assay: MHC binding assay (UV-ligand exchange, β2m ELISA, peptide exchange yield)
Conditions: binding of HLA-class I restricted peptides to HLA-A*02:01, UV-ligand exchange
Outline: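 Peptide-MHC complexes formed by UV-ligand exchange, cleaving a UV-sensitive placeholder peptide in favour of the test peptide. Exchange yield measured by ELISA: monomers diluted 100-fold onto streptavidin-coated plates, 1 h 37 °C, detected with 2 ug/ml HRP anti-β2m and TMB, absorbance at 450 nm.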

Substance	Peptide exchange (MHC class I binding score, peptide exchange yield)
392 (ALLHPQGFEV; listed as Homo sapiens) [compound 392]	“++” (≥20% = ++)
393 (GLLDTQTSQVLTA; listed as Homo sapiens) [compound 393]	“++” (≥20% = ++)
394 (LLAVIGGLVYL; listed as Homo sapiens) [compound 394]	“+++” (≥50 = +++)
395 (ALALGGIAVV; listed as Homo sapiens) [compound 395]	“++++” (≥75% = ++++)
396 (ALLPDLPAL; listed as Homo sapiens) [compound 396]	“+++” (≥50 = +++)
397 (YLFGERLLEC; listed as Homo sapiens) [compound 397]	“+++” (≥50 = +++)
398 (KLLEEDGTIITL; listed as Homo sapiens) [compound 398]	“++” (≥20% = ++)
399 (YLFEPLYHV; listed as Homo sapiens) [compound 399]	“+++” (≥50 = +++)
400 (SLLTEQDLWTV; listed as Homo sapiens) [compound 400]	“++” (≥20% = ++)
401 (ILLDDTGLAYI; listed as Homo sapiens) [compound 401]	“+++” (≥50 = +++)
402 (VLFSGALLGL; listed as Homo sapiens) [compound 402]	“++” (≥20% = ++)
403 (KLYDRILRV; listed as Homo sapiens) [compound 403]	“++” (≥20% = ++)
405 (ALYDVFLEV; listed as Homo sapiens) [compound 405]	“++” (≥20% = ++)
407 (YLMDLINFL; listed as Homo sapiens) [compound 407]	“+++” (≥50 = +++)
408 (VLDDSIYLV; listed as Homo sapiens) [compound 408]	“++” (≥20% = ++)
409 (LLDAMNYHL; listed as Homo sapiens) [compound 409]	“++” (≥20% = ++)
412 (YLDDLNEGVYI; listed as Homo sapiens) [compound 412]	“++” (≥20% = ++)
426 (RLADKSVLV; listed as Homo sapiens) [compound 426]	“+++” (≥50 = +++)
427 (ALLPLSPYL; listed as Homo sapiens) [compound 427]	“+++” (≥50 = +++)

Substance	Peptide exchange (MHC class I binding score, peptide exchange yield)
428 (KLGHTDILVGV; listed as Homo sapiens) [compound 428]	“++” (≥20% = ++)
429 (GLVNDLARV; listed as Homo sapiens) [compound 429]	“++” (≥20% = ++)
430 (HLYSSIEHLTT; listed as Homo sapiens) [compound 430]	“+++” (≥50 = +++)
431 (SLVNVVPKL; listed as Homo sapiens) [compound 431]	“++” (≥20% = ++)
432 (TLIEESAKV; listed as Homo sapiens) [compound 432]	“++” (≥20% = ++)
433 (AMLNEPWAV; listed as Homo sapiens) [compound 433]	“+++” (≥50 = +++)
434 (KVSNSGITRV; listed as Homo sapiens) [compound 434]	“++” (≥20% = ++)
436 (HLAEVSAEV; listed as Homo sapiens) [compound 436]	“+++” (≥50 = +++)
437 (SMAPGLVIQAV; listed as Homo sapiens) [compound 437]	“+++” (≥50 = +++)
438 (KLLPLAGLYL; listed as Homo sapiens) [compound 438]	“++++” (≥75% = ++++)
439 (YLLQEIYGI; listed as Homo sapiens) [compound 439]	“+++” (≥50 = +++)
440 (ALADGVTMQV; listed as Homo sapiens) [compound 440]	“++” (≥20% = ++)
441 (ALLENPKMEL; listed as Homo sapiens) [compound 441]	“+++” (≥50 = +++)
442 (GLLGGGGVLGV; listed as Homo sapiens) [compound 442]	“+++” (≥50 = +++)
443 (GLWEIENNPTV; listed as Homo sapiens) [compound 443]	“+++” (≥50 = +++)
444 (GLLRDEALAEV; listed as Homo sapiens) [compound 444]	“+++” (≥50 = +++)
446 (QLIPALAKV; listed as Homo sapiens) [compound 446]	“+++” (≥50 = +++)
447 (QLVPALAKV; listed as Homo sapiens) [compound 447]	“++” (≥20% = ++)

Other lines, results leading:

Peptide exchange (MHC class I binding score, peptide exchange yield)	Substance
“+++” (≥50 = +++)	448 (NLLETKLQL; listed as Homo sapiens) [compound 448]
“+++” (≥50 = +++)	449 (KLAEGLDIQL; listed as Homo sapiens) [compound 449]
“+++” (≥50 = +++)	450 (FMIDASVHPTL; listed as Homo sapiens) [compound 450]
“++” (≥20% = ++)	451 (LLLLDTVTMQV; listed as Homo sapiens) [compound 451]
“+++” (≥50 = +++)	452 (ILLEHGADPNL; listed as Homo sapiens) [compound 452]
“++” (≥20% = ++)	453 (KLLEATSAV; listed as Homo sapiens) [compound 453]
“+++” (≥50 = +++)	454 (KLPPPPPQA; listed as Homo sapiens) [compound 454]
“++” (≥20% = ++)	455 (SLLKEPQKVQL; listed as Homo sapiens) [compound 455]
“+++” (≥50 = +++)	456 (LLIGHLERV; listed as Homo sapiens) [compound 456]
“+++” (≥50 = +++)	457 (SLLPGNLVEKV; listed as Homo sapiens) [compound 457]
“++” (≥20% = ++)	458 (SLIDKLYNI; listed as Homo sapiens) [compound 458]
“++” (≥20% = ++)	459 (ALITEVVRL; listed as Homo sapiens) [compound 459]
“++++” (≥75% = ++++)	460 (AMLEKNYKL; listed as Homo sapiens) [compound 460]
“++” (≥20% = ++)	461 (VMFRTPLASV; listed as Homo sapiens) [compound 461]
“+++” (≥50 = +++)	462 (KLAKQPETV; listed as Homo sapiens) [compound 462]
“+++” (≥50 = +++)	463 (SLVESHLSDQLTL; listed as Homo sapiens) [compound 463]
“+++” (≥50 = +++)	464 (ALNDCIYSV; listed as Homo sapiens) [compound 464]
“+++” (≥50 = +++)	465 (QLCDLNAEL; listed as Homo sapiens) [compound 465]
“++++” (≥75% = ++++)	466 (VLIANLEKL; listed as Homo sapiens) [compound 466]
“+++” (≥50 = +++)	467 (FLAKDFNFL; listed as Homo sapiens) [compound 467]
“+++” (≥50 = +++)	468 (YLRSVGDGETV; listed as Homo sapiens) [compound 468]
“+++” (≥50 = +++)	469 (YLASDEITTV; listed as Homo sapiens) [compound 469]
“+++” (≥50 = +++)	471 (YLYNNMIAKI; listed as Homo sapiens) [compound 471]
“+++” (≥50 = +++)	472 (KLLEVSDDPQV; listed as Homo sapiens) [compound 472]
“+++” (≥50 = +++)	473 (AMATESILHFA; listed as Homo sapiens) [compound 473]
“+++” (≥50 = +++)	474 (YLDPALELGPRNV; listed as Homo sapiens) [compound 474]
“+++” (≥50 = +++)	475 (LLLNEEALAQI; listed as Homo sapiens) [compound 475]
“+++” (≥50 = +++)	476 (ALMERTGYSMV; listed as Homo sapiens) [compound 476]
“+++” (≥50 = +++)	477 (ALLPASGQIAL; listed as Homo sapiens) [compound 477]

Source: patent US11230581B2, “Peptides and combination of peptides for use in immunotherapy against ovarian cancer and other cancers” (Immatics Biotechnologies GmbH, priority 2015, dated 2022)
